B1: HDV Ribozyme (parent)
chain: GGCCGGCAUGGUCCCAGCCUCCUCGCUGGCGCCGGCUGGGCAACAUUCCGAGGGGACCGUCCCCUCGGUAAUGGCGAAUGGGACCCA

Variants of: B1
Assay: self-cleavage, relative activity (ratio to wild type); higher = more cleavage; co-transcriptional

Row | Variant | self-cleavage
1 | GGCCGGCAUGGUCCCAGCCUCCUCGCUGGCGCCGGCUGGGCAACAUUCCGAGGGGACCGUCCCCGCGGUAAUGGCGAAUGGGACGCA [U65G C85G] | 0.692
2 | GGCCGGCAUGGUCCCAGCCUCCUCGCUGGCGCCGGCUGGGCAACAUUCCGAGGGGACCGUCCCCUUGGUAAUGGCGAAAGGGACCCA [C66U U79A] | 0.869
3 | GGCCGGCAUGGUCCCAGCCUCCUCGCUGGCGCCGGCUGGGCAACAUGCCGAGGGGACCGUCCCCUCGGUAAUGGCGAACGGGACCCA [U47G U79C] | 0.322
4 | GGCCGGCAUGGUCCCAGCCUCCUCGCUGGCUCCGGCUGGGCAACAUUCCGAGGGGACCGUCCCCUCGGUAAUGGCGAACGGGACCCA [G31U U79C] | 0.107
5 | GGCCGGCAUGGUCCCAGCCUCCCCGCUGGCGCCGGCUGGGCAACAUUCCGAGGGGACCGACCCCUCGGUAAUGGCGAAUGGGACCCA [U23C U60A] | 0.877
6 | GGCCGGCAUGGUCCCAGCCUCCUCGCUGGCGCCGGCUGGGCAACAUUCCGAGGGGACCGUCCCCUCGGUAAUGGCAAAUGGGACCUA [G76A C86U] | 0.92
7 | GGCCGGCAUGGUCCCAGCCUUCUCGCUGGCGCCGGCUGGGCAACAUUCUGAGGGGACCGUCCCCUCGGUAAUGGCGAAUGGGACCCA [C21U C49U] | 0.245
8 | GGCCGGCAUGGUCCCAGCCUCCUCGCUGGCGCCGGCUAGGCAACAUUCCGACGGGACCGUCCCCUCGGUAAUGGCGAAUGGGACCCA [G38A G52C] | 0.0692
9 | GGCCGGCAUGGUCCCAGCCUCCUCGCUUGCGCCGGCUGGGCAACAUUCCGAGGGGAGCGUCCCCUCGGUAAUGGCGAAUGGGACCCA [G28U C57G] | 0.0773
10 | GGCCGUCAUGGUCCCAGCCUCCUCGCUGGCGCCGGCUGGGCAACAUUCCGUGGGGACCGUCCCCUCGGUAAUGGCGAAUGGGACCCA [G6U A51U] | 0.739
11 | GGCCGGCAUGGUCCCAGCCUCCUCGCUGGCGCCGGCUGGGCAACAUUCCGAGGGGAACGUCCCCUCGGUUAUGGCGAAUGGGACCCA [C57A A70U] | 1.25
12 | GGCCGGCAUGGUCCCAGCCUCCUCGCUGGCGCCGGCUGGGCCACAUUCCGAGGGGACCGUCCCCUCGGUAAUGGGGAAUGGGACCCA [A42C C75G] | 0.0852
13 | GGCCGGCAUGGACCCAGCCUCCGCGCUGGCGCCGGCUGGGCAACAUUCCGAGGGGACCGUCCCCUCGGUAAUGGCGAAUGGGACCCA [U12A U23G] | 0.0791
14 | GGCCGGCAUGGUCCCAGCCUCCUCGCUGGCGCCGGCUGGGCAACAUUCCGAGGGCACCGUCCCCUCGGUAAUGGCGAAUGGGACCUA [G55C C86U] | 1.12
15 | GGCCGGCAUCGUCCCAGCCUCCUCGCUGGCGCCGGCUGGGCAACAUUCCGAGGGGACCGUCCCUUCGGUAAUGGCGAAUGGGACCCA [G10C C64U] | 0.892
16 | GGCCUGCAUGGUCCCAGCCUCCUCGCUGGCGCCGGCUGGGCAACAUACCGAGGGGACCGUCCCCUCGGUAAUGGCGAAUGGGACCCA [G5U U47A] | 0.378
17 | GACCGGCAUGGUCCCAGCCACCUCGCUGGCGCCGGCUGGGCAACAUUCCGAGGGGACCGUCCCCUCGGUAAUGGCGAAUGGGACCCA [G2A U20A] | 0.0361
18 | GGCCGGCAUGGUCCCAGCCUCCUCCCUGGAGCCGGCUGGGCAACAUUCCGAGGGGACCGUCCCCUCGGUAAUGGCGAAUGGGACCCA [G25C C30A] | 0.0511
19 | AGCCGGCAUGGUCCCAGCCUCCUCGCUGGCGCCGGCUGGGCAACAUUCCCAGGGGACCGUCCCCUCGGUAAUGGCGAAUGGGACCCA [G1A G50C] | 0.302
20 | GGCCGGCAUGGUCCUAGCCUCCUCGCUGGCGCCGGCUGGGCAACAUUCCGAGGGGACCGUCCCGUCGGUAAUGGCGAAUGGGACCCA [C15U C64G] | 0.962
21 | GGCCGGCAUGGUCCCAGCCUCCUCGCUGGCCCCGGCUGGGCAACAUUCCGAGGGGACCGUCCCCCCGGUAAUGGCGAAUGGGACCCA [G31C U65C] | 0.361
22 | GGCCGGCAUGGUCACAGCCUCCUCGCUGGCGCCGGUUGGGCAACAUUCCGAGGGGACCGUCCCCUCGGUAAUGGCGAAUGGGACCCA [C14A C36U] | 0.259

Row | Variant | self-cleavage
23 | GGCCGGCAUGGUACCAGCCUCCUCGCUGGCGCCGGCUGGGCAACAUUCCGAGGGGACCGUCCCCUCGGUAAUGGUGAAUGGGACCCA [C13A C75U] | 0.163
24 | GGCCGGCAUGGUCCCAGCCUCCUCGCUGGCGCCGGCUGGGCAACAUUCCGAGGGGACCGUCCCCUCGGUAAUGACGAAUGGGAACCA [G74A C84A] | 0.389
25 | GGCCGGCAUGGUCCCAACCUCCUCGCUGGCGCCGGCUGGGCAACAUUCCGAGGGGACCGUCCCCUCGGUAAUGGCCAAUGGGACCCA [G17A G76C] | 0.665
26 | GGCCGGCAUGGUCCCAGCCUCCUCGCUGGCGCCGGCUGGGGAACAUUCCGAGGGGAGCGUCCCCUCGGUAAUGGCGAAUGGGACCCA [C41G C57G] | 0.804
27 | GGCCGGCAUGGUCCCAGCCUCCUCGCUGGCGCCGGCUGGGCAACAUUCCAAGGGGACCGUCCCCUCGGUACUGGCGAAUGGGACCCA [G50A A71C] | 0.633
28 | GGCCGGCAUGGUCCAAGCCUCCUCGCUGGCGCCGGCUGGGCAACAUUCCGAGGGGACCGUCCCCUCGGUAAUGGCGCAUGGGACCCA [C15A A77C] | 0.0978
29 | GGCCGGCAUGGUCCCAGCCUCCUCGCUGGCACCGGCUGGGCAACAUUCCGAGGGGACCGUCCCGUCGGUAAUGGCGAAUGGGACCCA [G31A C64G] | 0.408
30 | GGCCGGCAUGGUCCCAGCCUCCUCGCUGGCGCCCGCUGGGCAACAUUCCGAGAGGACCGUCCCCUCGGUAAUGGCGAAUGGGACCCA [G34C G53A] | 0.229
31 | GGCCGGCAUGGUCCCAGCCUCCUCGCUGCCGCCGGCUGGGCAACAUUCCGAGGGGACCGUCCCCUCGUUAAUGGCGAAUGGGACCCA [G29C G68U] | 0.0302
32 | GGCCGGCAUGGUCCCAGCCUCCUCGCUUGCGCCGGCUGGGCAACAUUCCGAGGGGACCGUCCCCUCGGUAAUGGUGAAUGGGACCCA [G28U C75U] | 0.136
33 | GGCCGGCAUGGUCCCAGCCUCCUCGCUGGCGCCCGCUGGGCAACAUUCCGAGGUGACCGUCCCCUCGGUAAUGGCGAAUGGGACCCA [G34C G54U] | 0.123
34 | GGCCGGCAUGGUCCCAGCCUCCUCGCUGGCGCCGGCUGGGCAACAUUCCGAGGGGACCGUCCCCUCGGUAUUGGCUAAUGGGACCCA [A71U G76U] | 1.17
35 | GGCCGGCAUGGUCCCAGCCUCCUCGCUGGUGCCGGCUGGGCAACAUUCCGAGGGGACCGUCCCCUCGGUGAUGGCGAAUGGGACCCA [C30U A70G] | 0.8
36 | GGCCGGCAUGGUCCCAGACUCCUCGCUGGCGCCGGCUGGGCAACAUUCCGAGGGGACCGUCCGCUCGGUAAUGGCGAAUGGGACCCA [C18A C63G] | 0.0791
37 | GACCGGCAUGAUCCCAGCCUCCUCGCUGGCGCCGGCUGGGCAACAUUCCGAGGGGACCGUCCCCUCGGUAAUGGCGAAUGGGACCCA [G2A G11A] | 0.0786
38 | GGCCGGCAUGGACCCAGCCUCCUCGCUGGCGCCGGCUGGGCAACAUUCCGAGGGGAGCGUCCCCUCGGUAAUGGCGAAUGGGACCCA [U12A C57G] | 0.208
39 | GGCCGGCAUGGUCCCAGCCUCCUCGCUGGCUCCGGCUGGGCAACAUUCCCAGGGGACCGUCCCCUCGGUAAUGGCGAAUGGGACCCA [G31U G50C] | 0.237
40 | GGCCGGCAUGGUCCCAGCCUCCUCGCUGGUGCCGGCUGGGCAACAUUCCGAGGGGACCGUCCCCUCGGUAAUUGCGAAUGGGACCCA [C30U G73U] | 0.153
41 | GGCCGGCAUGGUCCCAGCCUCCUCGCUGGCGCCGGCUGGGCAACAUUCCGAGCGGAACGUCCCCUCGGUAAUGGCGAAUGGGACCCA [G53C C57A] | 0.95
42 | GGCCGGCAUGGUCCCAGCCUCCUCGCUGGCGCCGGCUGGGCACUAUUCCGAGGGGACCGUCCCCUCGGUAAUGGCGAAUGGGACCCA [A43C C44U] | 0.923
43 | GGCCGGCAUGGUCCCAGCGUCCUCGCUGGCGACGGCUGGGCAACAUUCCGAGGGGACCGUCCCCUCGGUAAUGGCGAAUGGGACCCA [C19G C32A] | 0.0462
44 | GGCCGGCAUGGUCCCAGCCUCCUCGCUGUCGCCGGCUGGGCAACAUUCCUAGGGGACCGUCCCCUCGGUAAUGGCGAAUGGGACCCA [G29U G50U] | 0.12

Row | Variant | self-cleavage
45 | GGCCGGCAUGGUCCCAGCCUCCUCGCUGGCGCCGGCUGGGCAACAUUCCGAGGGGAAGGUCCCCUCGGUAAUGGCGAAUGGGACCCA [C57A C58G] | 1.14
46 | GGCCGGCAUGGUCCCAGCCUCCUCGCUGGCGCCGGCUGGGCAACAUUCCGAGGGGACCGUCCCCUCGACAAUGGCGAAUGGGACCCA [G68A U69C] | 0.782
47 | GGCCGGCAUGGUCCCAGCCUCCUCCCUGGCGCCGGCUGGGCAACAUACCGAGGGGACCGUCCCCUCGGUAAUGGCGAAUGGGACCCA [G25C U47A] | 0.0639
48 | GGCCGGCAUGGUCCCAGCCUCCUCUCUGGCGCCGGCUGGGCAACAUUCCGAGGGGACCGUCCCCUCGGUAAAGGCGAAUGGGACCCA [G25U U72A] | 0.0707
49 | GGCCGGCAUGGUCCCAGCCUCCUCGCUGGCGCCGGCUGGGCAACAUUCCGAGGGGACCGUCCCCUCGGUAAUAGCGAGUGGGACCCA [G73A A78G] | 0.203
50 | GGCCGGCAUGGUCCCAGCCUCCUCGCUGGCGCCGGCUGGGCAACAUUCCGAGGGGAACGUCACCUCGGUAAUGGCGAAUGGGACCCA [C57A C62A] | 0.997
51 | GGCCGGCAUGGUCCCAGCCUCCUUGCUGGCGCCGGCUGGGCAACAUUCCGAGCGGACCGUCCCCUCGGUAAUGGCGAAUGGGACCCA [C24U G53C] | 0.848
52 | GACCGGCAUGGUCCCAGCCUCCUCGCUGGCGCCGGCUGGGCAACAUUCCGAGGGGACCGUCCCCUCGGUAAUUGCGAAUGGGACCCA [G2A G73U] | 0.0443
53 | GGCCGGCAUGGUCCCAGCCUCCUCGCUGGCGCCGGCUGGGCAACAUUCCGAGAGGACCGUCCCCUCGGUAAUGGCGAAUGGUACCCA [G53A G82U] | 0.359
54 | GGCCGGCAUGGUCCCAGCCUCCUCGCUGGCGCCGGCUGGGCAACAUUCCGAGGGGCCCGUCCCCUCGGUACUGGCGAAUGGGACCCA [A56C A71C] | 0.997
55 | GGCCGGCAUGGUCCCAGCCUCCUCGCUGGCGCCGGCUGGGCAAGAUUCCGAGGGGACCGUCCCCUCGGUAAUGGCGUAUGGGACCCA [C44G A77U] | 0.0978
56 | GGCCGGCAUGGUCCCAGCCUCCUCGCUGGCGCCGGCUGGUCAACAUUCCGAGGGGACCGUCCCCUCGGUAAUGGCGAAGGGGACCCA [G40U U79G] | 0.243
57 | GGCCGGCAUGGUCCCAGCCUCCUCGCUGGCGCCGGCUGGGCAACAUUCCGAGGGGACCGUCCCCUCGGUAAUGGCGAAUGGGUCCGA [A83U C86G] | 0.361
58 | GGCCGGCAUGGUCCCAGCCUGCUCGCUUGCGCCGGCUGGGCAACAUUCCGAGGGGACCGUCCCCUCGGUAAUGGCGAAUGGGACCCA [C21G G28U] | 0.0287
59 | GGCCGGCAUGGUCCCAGCCUCCUCGCUGGCGCCGGCUGGGCAACAUGCCGAGGGGACCGUCCCCUCGGUAAUGGCGAAUGGGACCAA [U47G C86A] | 0.814
60 | GGCCGGCAUGGUCCCAGCCUCCUCGCUGGCGCCGGCUGGGCAACAUUCCGAGGGGACCGUCCCCUCGGUAACGUCGAAUGGGACCCA [U72C G74U] | 0.584
61 | GGCCGGCAUGCUCCCAGCCUCCUCGCUGGCGCCGGCUGGGCAACAUUCCAAGGGGACCGUCCCCUCGGUAAUGGCGAAUGGGACCCA [G11C G50A] | 0.271
62 | GGCCGGCAUGGUCCCAGCCUCCUCGCUGGCGCCGGCUGGGUAACAUUCCGAGGGGACCGUCCCCUCGAUAAUGGCGAAUGGGACCCA [C41U G68A] | 0.743
63 | GGCCGGCAUGGUCCCAGCCUCCUCGCUGGCGCGGGCUGGCCAACAUUCCGAGGGGACCGUCCCCUCGGUAAUGGCGAAUGGGACCCA [C33G G40C] | 0.138
64 | GGCCGGCAUGGUCCCAGCCUCCUCGCUGGCGCCGGCUGGGCAACAUUCCGAUGGGACCGUCCCCUCGGAAAUGGCGAAUGGGACCCA [G52U U69A] | 1.09

— the RNAGym collection of RNA variant scans (doi:10.7554/elife.80360)
